Test results from the RNAGym collection of RNA variant scans (doi:10.7554/elife.90254).

B1: OR4K15 (parent)
chain: GUUAACGGUCAUAGGCCAUGGAAACUAGGAGCACCAUUUCGCUGCCAGUGAAGAAAUGAACAAAGAAAAUCUGGGCCAGGCAGGCAUCAAAAGAAAUAGUCUUGCGCUCAACCAGAAAGUCUGUAAUCAUUUUAAGGGUA

Variants of: B1
Test: self-cleavage, relative activity (ratio to wild type); higher = more cleavage; in vitro, sequencing; the parent is a self-cleaving ribozyme

Point of comparison: GUUAACGGUCAUAGGCCAUGGAAACUAGGAGCACCAUUUCGCUGCCAGUGAAGAAAUGAACAAAGAAAAUCUGGGCCAGGCAGGCAUCAAAAGAAAUAGCCUUGCGCUCAACCAGAAAGUCUGUAAUCAUUUUAAGGGAA [U100C U139A], self-cleavage 2.28. Against it:
- GUUAACGGUCAUAGGCCAUGGAAACUAGGAGCACCAUUUCGCUGCCAGUGAAGAAAUGAACAAAGAAAAUCUGGGCCAGGCAGGCAUCAAAAGAAAUAGUCCUGCGCUCAACCUGAAAGUCUGUAAUCAUUUUAAGGGUA [U102C A114U] — lower, 0.11
- GUUAACGGUCAUAGGCCAUGGAAACUAGGAGCACCAUUUCGCUGCCAGUGAAGAAAUGAACAAAGAAAAUCUGGGCCAGGCAGGCAUCAAAAGAAAUAGUCCUGCGCUCAACCGGAAAGUCUGUAAUCAUUUUAAGGGUA [U102C A114G] — lower, 0.68
- GUUAACGGUCAUAGGCCAUGGAAACUAGGAGCACCAUUUCGCUGCCAGUGAAGAAAUGAACAAAGAAAAUCUGGGCCAGGCAGGCAUCAAAAGAAAUAGCCUUGCGCUCAACCAGAAAGUCUGUAAUCAUUUUAAGGGCA [U100C U139C] — higher, 2.29
- GUUAACGGUCAUAGGCCAUGGAAACUAGGAGCACCAUUUCGCUGCCAGUGAAGAAAUGAACAAAGAAAAUCUGGGCCAGGCAGGCAUCAAAAGAAAUAGUCAUGCGCUCAACCAAAAAGUCUGUAAUCAUUUUAAGGGUA [U102A G115A] — lower, 0.06
- GUUAACGGUCAUAGGCCAUGGAAACUAGGAGCACCAUUUCGCUGCCAGUGAAGAAAUGAACAAAGAAAAUCUGGGCCAGGCAGGCAUCAAAAGAAAUAGUUUUGCGCUCAACCAGAAAGUCUGUAAUCAUCUUAAGGGUA [C101U U131C] — lower, 0.27
- GUUAACGGUCAUAGGCCAUGGAAACUAGGAGCACCAUUUCGCUGCCAGUGAAGAAAUGAACAAAGAAAAUCUGGGCCAGGCAGGCAUCAAAAGAAAUAGUCAAGCGCUCAACCAGAAAGUCUGUAAUCAUUUUAAGGGUA [U102A U103A] — lower, 0.12
- GUUAACGGUCAUAGGCCAUGGAAACUAGGAGCACCAUUUCGCUGCCAGUGAAGAAAUGAACAAAGAAAAUCUGGGCCAGGCAGGCAUCAAAAGAAAUAGUAUUGCGCUCAACCAGAAAGUCCGUAAUCAUUUUAAGGGUA [C101A U122C] — lower, 0.13
- GUUAACGGUCAUAGGCCAUGGAAACUAGGAGCACCAUUUCGCUGCCAGUGAAGAAAUGAACAAAGAAAAUCUGGGCCAGGCAGGCAUCAAAAGAAAUAGUCAUGCGCUCAGCCAGAAAGUCUGUAAUCAUUUUAAGGGUA [U102A A111G] — lower, 0.03
- GUUAACGGUCAUAGGCCAUGGAAACUAGGAGCACCAUUUCGCUGCCAGUGAAGAAAUGAACAAAGAAAAUCUGGGCCAGGCAGGCAUCAAAAGAAAUAGUCAUGCGCUCAACCAGAAAGUCUGUAAUCUUUUUAAGGGUA [U102A A129U] — lower, 0.31
- GUUAACGGUCAUAGGCCAUGGAAACUAGGAGCACCAUUUCGCUGCCAGUGAAGAAAUGAACAAAGAAAAUCUGGGCCAGGCAGGCAUCAAAAGAAAUAGUCCUGCGCUCCACCAGAAAGUCUGUAAUCAUUUUAAGGGUA [U102C A110C] — lower, 0.4
- GUUAACGGUCAUAGGCCAUGGAAACUAGGAGCACCAUUUCGCUGCCAGUGAAGAAAUGAACAAAGAAAAUCUGGGCCAGGCAGGCAUCAAAAGAAAUAGUCCUGCGCUCGACCAGAAAGUCUGUAAUCAUUUUAAGGGUA [U102C A110G] — lower, 0.15
- GUUAACGGUCAUAGGCCAUGGAAACUAGGAGCACCAUUUCGCUGCCAGUGAAGAAAUGAACAAAGAAAAUCUGGGCCAGGCAGGCAUCAAAAGAAAUAGUCAUGCGCUCAACCAGAAAGUCUGUAAUCACUUUAAGGGUA [U102A U130C] — lower, 0.43
- GUUAACGGUCAUAGGCCAUGGAAACUAGGAGCACCAUUUCGCUGCCAGUGAAGAAAUGAACAAAGAAAAUCUGGGCCAGGCAGGCAUCAAAAGAAAUAGUCAUGCGCUCAACCAGAAAGUCUGUAAUCAAUUUAAGGGUA [U102A U130A] — lower, 0.32
- GUUAACGGUCAUAGGCCAUGGAAACUAGGAGCACCAUUUCGCUGCCAGUGAAGAAAUGAACAAAGAAAAUCUGGGCCAGGCAGGCAUCAAAAGAAAUAGUCAUGCGCUCAACCAGAAAGUCUGCAAUCAUUUUAAGGGUA [U102A U124C] — lower, 0.88
- GUUAACGGUCAUAGGCCAUGGAAACUAGGAGCACCAUUUCGCUGCCAGUGAAGAAAUGAACAAAGAAAAUCUGGGCCAGGCAGGCAUCAAAAGAAAUAGUCCUGCGCUCAGCCAGAAAGUCUGUAAUCAUUUUAAGGGUA [U102C A111G] — lower, 0.01
- GUUAACGGUCAUAGGCCAUGGAAACUAGGAGCACCAUUUCGCUGCCAGUGAAGAAAUGAACAAAGAAAAUCUGGGCCAGGCAGGCAUCAAAAGAAAUAGCCUUGCGCUCAACCAGAAAGUCUGUAAUCAUUCUAAGGGUA [U100C U132C] — lower, 2.14
- GUUAACGGUCAUAGGCCAUGGAAACUAGGAGCACCAUUUCGCUGCCAGUGAAGAAAUGAACAAAGAAAAUCUGGGCCAGGCAGGCAUCAAAAGAAAUAGGCUUGCGCUCAACCAGAAAGUCUGUAAUCAUUUUAAGGGUA [U100G] — lower, 1.24
- GUUAACGGUCAUAGGCCAUGGAAACUAGGAGCACCAUUUCGCUGCCAGUGAAGAAAUGAACAAAGAAAAUCUGGGCCAGGCAGGCAUCAAAAGAAAUAGUCAUGCGCUCAACCAGCAAGUCUGUAAUCAUUUUAAGGGUA [U102A A116C] — lower, 0.21
- GUUAACGGUCAUAGGCCAUGGAAACUAGGAGCACCAUUUCGCUGCCAGUGAAGAAAUGAACAAAGAAAAUCUGGGCCAGGCAGGCAUCAAAAGAAAUAGCCUUGCGCUCAACCAGAAAGUCUGUAAUCAUCUUAAGGGUA [U100C U131C] — lower, 2.14
- GUUAACGGUCAUAGGCCAUGGAAACUAGGAGCACCAUUUCGCUGCCAGUGAAGAAAUGAACAAAGAAAAUCUGGGCCAGGCAGGCAUCAAAAGAAAUAGUCAUGCGCUCAACCAGAAAGUCUGUAAUCAUUUUAAGGGUA [U102A] — lower, 0.74
- GUUAACGGUCAUAGGCCAUGGAAACUAGGAGCACCAUUUCGCUGCCAGUGAAGAAAUGAACAAAGAAAAUCUGGGCCAGGCAGGCAUCAAAAGAAAUAGUCCUGCGCUCAACCAGAAAGUCUGUAAUCAUUUUAAGGGUA [U102C] — lower, 1.82
- GUUAACGGUCAUAGGCCAUGGAAACUAGGAGCACCAUUUCGCUGCCAGUGAAGAAAUGAACAAAGAAAAUCUGGGCCAGGCAGGCAUCAAAAGAAAUAGUUUUGCACUCAACCAGAAAGUCUGUAAUCAUUUUAAGGGUA [C101U G106A] — lower, 0
- GUUAACGGUCAUAGGCCAUGGAAACUAGGAGCACCAUUUCGCUGCCAGUGAAGAAAUGAACAAAGAAAAUCUGGGCCAGGCAGGCAUCAAAAGAAAUAGUCCUGCGCUCAACCAGUAAGUCUGUAAUCAUUUUAAGGGUA [U102C A116U] — lower, 0.23
- GUUAACGGUCAUAGGCCAUGGAAACUAGGAGCACCAUUUCGCUGCCAGUGAAGAAAUGAACAAAGAAAAUCUGGGCCAGGCAGGCAUCAAAAGAAAUAGUCCUGCGCUCAACCAGGAAGUCUGUAAUCAUUUUAAGGGUA [U102C A116G] — lower, 0.7
- GUUAACGGUCAUAGGCCAUGGAAACUAGGAGCACCAUUUCGCUGCCAGUGAAGAAAUGAACAAAGAAAAUCUGGGCCAGGCAGGCAUCAAAAGAAAUAGUCAUGCGCUCAACCGGAAAGUCUGUAAUCAUUUUAAGGGUA [U102A A114G] — lower, 0.43
- GUUAACGGUCAUAGGCCAUGGAAACUAGGAGCACCAUUUCGCUGCCAGUGAAGAAAUGAACAAAGAAAAUCUGGGCCAGGCAGGCAUCAAAAGAAAUAGUCAUGCGCUCAACCAGAAAAUCUGUAAUCAUUUUAAGGGUA [U102A G119A] — lower, 1.23
- GUUAACGGUCAUAGGCCAUGGAAACUAGGAGCACCAUUUCGCUGCCAGUGAAGAAAUGAACAAAGAAAAUCUGGGCCAGGCAGGCAUCAAAAGAAAUAGUCAUGCGCUCAACCAGAAAGUCUGUAAUCAUUUUAAGGGUU [U102A A140U] — lower, 1.14
- GUUAACGGUCAUAGGCCAUGGAAACUAGGAGCACCAUUUCGCUGCCAGUGAAGAAAUGAACAAAGAAAAUCUGGGCCAGGCAGGCAUCAAAAGAAAUAGUCAUGCGCUCAACCAGAAAGUCUGUAAUCAUUUUAAGGGUG [U102A A140G] — lower, 1.02
- GUUAACGGUCAUAGGCCAUGGAAACUAGGAGCACCAUUUCGCUGCCAGUGAAGAAAUGAACAAAGAAAAUCUGGGCCAGGCAGGCAUCAAAAGAAAUAGGCUUGCGCUCAACCAGAAAGUCUGUAGUCAUUUUAAGGGUA [U100G A126G] — lower, 1.02
- GUUAACGGUCAUAGGCCAUGGAAACUAGGAGCACCAUUUCGCUGCCAGUGAAGAAAUGAACAAAGAAAAUCUGGGCCAGGCAGGCAUCAAAAGAAAUAGUCAUGCGCUCAACCAGAAAGUCUGUAACCAUUUUAAGGGUA [U102A U127C] — lower, 0.74
- GUUAACGGUCAUAGGCCAUGGAAACUAGGAGCACCAUUUCGCUGCCAGUGAAGAAAUGAACAAAGAAAAUCUGGGCCAGGCAGGCAUCAAAAGAAAUAGUCAUGCGCACAACCAGAAAGUCUGUAAUCAUUUUAAGGGUA [U102A U108A] — lower, 0.02
- GUUAACGGUCAUAGGCCAUGGAAACUAGGAGCACCAUUUCGCUGCCAGUGAAGAAAUGAACAAAGAAAAUCUGGGCCAGGCAGGCAUCAAAAGAAAUAGUUUUGCGCUCAACCAGAAAGUCUGUAAACAUUUUAAGGGUA [C101U U127A] — lower, 0.45
- GUUAACGGUCAUAGGCCAUGGAAACUAGGAGCACCAUUUCGCUGCCAGUGAAGAAAUGAACAAAGAAAAUCUGGGCCAGGCAGGCAUCAAAAGAAAUAGUUUUGCGCUCAACCAGAAGGUCUGUAAUCAUUUUAAGGGUA [C101U A118G] — lower, 0.02
- GUUAACGGUCAUAGGCCAUGGAAACUAGGAGCACCAUUUCGCUGCCAGUGAAGAAAUGAACAAAGAAAAUCUGGGCCAGGCAGGCAUCAAAAGAAAUAGGCUUGCGCACAACCAGAAAGUCUGUAAUCAUUUUAAGGGUA [U100G U108A] — lower, 0.02
- GUUAACGGUCAUAGGCCAUGGAAACUAGGAGCACCAUUUCGCUGCCAGUGAAGAAAUGAACAAAGAAAAUCUGGGCCAGGCAGGCAUCAAAAGAAAUAGUCAUGCGCUCAACCAGAAAGUCUGUAAUCAUCUUAAGGGUA [U102A U131C] — lower, 0.62
- GUUAACGGUCAUAGGCCAUGGAAACUAGGAGCACCAUUUCGCUGCCAGUGAAGAAAUGAACAAAGAAAAUCUGGGCCAGGCAGGCAUCAAAAGAAAUAGUUUUGCGCUCAACCAGAAAGACUGUAAUCAUUUUAAGGGUA [C101U U120A] — lower, 0.4
- GUUAACGGUCAUAGGCCAUGGAAACUAGGAGCACCAUUUCGCUGCCAGUGAAGAAAUGAACAAAGAAAAUCUGGGCCAGGCAGGCAUCAAAAGAAAUAGUCAUGCGCUCAACCAGAAAGUCUGUAAUCAUUUUAUGGGUA [U102A A135U] — lower, 0.49
- GUUAACGGUCAUAGGCCAUGGAAACUAGGAGCACCAUUUCGCUGCCAGUGAAGAAAUGAACAAAGAAAAUCUGGGCCAGGCAGGCAUCAAAAGAAAUAGUCAUGCGCUCAACCAGAAAGUCAGUAAUCAUUUUAAGGGUA [U102A U122A] — lower, 1.28
- GUUAACGGUCAUAGGCCAUGGAAACUAGGAGCACCAUUUCGCUGCCAGUGAAGAAAUGAACAAAGAAAAUCUGGGCCAGGCAGGCAUCAAAAGAAAUAGUUUUGCGCUCAACCAGAAAGUCUGUAAUCAUUUUAAGGGUA [C101U] — lower, 0.41
- GUUAACGGUCAUAGGCCAUGGAAACUAGGAGCACCAUUUCGCUGCCAGUGAAGAAAUGAACAAAGAAAAUCUGGGCCAGGCAGGCAUCAAAAGAAAUAGUAUUGCGCUCAACCAGAAAGUCUGUAAUCAUUUUAAGGGUA [C101A] — lower, 0.21
